Experimental data taken from patent publication CN114573710A.

Columns and labels:
[1] = biological target: CD47 on lymphoma cell lines Raji, Daudi and Romas (UniProt Q08722); test: flow cytometry, Raji cells incubated with CD19-s47-CART supernatant, detected with anti-HA-APC
[2] = biological target: CD47 on lymphoma cell lines Raji, Daudi and Romas (UniProt Q08722); test: flow cytometry, Daudi cells incubated with CD19-s47-CART supernatant, detected with anti-HA-APC
[3] = biological target: CD47 on lymphoma cell lines Raji, Daudi and Romas (UniProt Q08722); test: flow cytometry, Romas cells incubated with CD19-s47-CART supernatant, detected with anti-HA-APC

Measured: 结合率

UniProt Q08722, sequence (Q08722 19-323 limits assumed): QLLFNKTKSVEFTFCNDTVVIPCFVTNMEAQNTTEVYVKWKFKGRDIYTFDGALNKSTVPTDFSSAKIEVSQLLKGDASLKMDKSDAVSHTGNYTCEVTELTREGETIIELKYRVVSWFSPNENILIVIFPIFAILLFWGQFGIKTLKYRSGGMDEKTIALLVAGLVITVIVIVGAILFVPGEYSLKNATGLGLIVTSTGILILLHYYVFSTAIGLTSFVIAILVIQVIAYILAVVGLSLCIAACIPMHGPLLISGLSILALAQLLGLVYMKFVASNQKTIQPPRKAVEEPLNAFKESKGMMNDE

B1: 外泌蛋白s47 (抗CD47单链抗体, CD47 ScFv, 末尾连接HA标签) (scFv)
scFv: DVVMTQSPLSLPVTPGEPASISCRSSQSIVYSNGNTYLGWYLQKPGQSPKLLIYKVSNRFSGVPDRFSGSGSGTDFTLKISRVEAEDVGVYHCFQGSHVPYTFGGGTKVEIKGGGGSGGGGSGGGGSQVQLVQSGAEVKKPGASVKVSCKASGYTFTNYNMHWVRQAPGQGLEWIGTIYPGNDDTSYNQKFKDKATLTADKSTSTAYMELSSLRSEDTAVYYCARGGYRAMDYWGQGTLVTVSSYPYDVPDYA
100 %: all assays above
